Laboratory results reported in patent US20190071480A1 (Biogen, published 2019).
Bridges are numbered along the chain shown (N, C = ends).

T1: extracellular domain of activin receptor type IIB (ActRIIBecd), biotinylated (Homo sapiens (Human), UniProt Q13705 27-117, amino-biotinylated with amine-PEG3-Biotin)
T1 construct: immobilised on a streptavidin-coated sensor chip; also called biotinylated ActRIIBecd; extracellular domain of ActRIIB
T1 sequence: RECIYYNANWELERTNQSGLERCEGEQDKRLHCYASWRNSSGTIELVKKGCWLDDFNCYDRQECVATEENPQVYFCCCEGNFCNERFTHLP


Assays:
[1] = molecular target: T1, extracellular domain of activin …; assay: Mean KD column of Table 5; method not restated (BIAcore as Example 5)
Description: (§1) Biosensor experiments. In one embodiment, experiments were performed on a BIAcore™ T100/T200 instrument (Pharmacia Biosensor AB) in the multichannel mode (serial flow path involving flow cells 1+2+3+4). Flow rate was 10 μl/min; temperature was 25° C.; and data were recorded at 2.5 points/s. All four segments of a sensor chip CMS were coated with streptavidin (Sigma) to a density of 2000 pg/mm² (2000 resonance units) by the aminocoupling procedure. ActRIIBecd (10 mg) and amine-PEG3-Biotin (10 mg, Pierce, Rockford, Ill.) were dissolved in 200 μl H₂O and 10 mg NaCNBH₃ was added to prepare biotinylated ActRIIBecd. The reaction mixture was heated at 70° C. for 24 h, after that a further 10 mg NaCNBH₃ was added and the reaction was heated at 70° C. for another 24 h. After cooling to room temperature, the mixture was desalted with the spin column (3,000 molecular weight cut off (MWCO)). Biotinylated ActRIIBecd was collected, freeze-dried and used for streptavidin (SA) chip preparation. Amino-biotinylated ActRIIBecd was then immobilized independently on flow cells 2-4 for 10 minutes at a flow rate of 5 μL/min and a concentration of 20 μM in 10 mM sodium acetate, pH 4.0, at a density of 50-250 resonance units (RU). The stored polypeptides were dissolved in glycine buffer (2.5 g of glycine, 0.5 g of sucrose, 370 mg of L-glutamate, 10 mg of sodium chloride, and 10 mg of Tween 80 in 100 mL water, pH 4.5) to prepare 10 mg/mL solution and then diluted with previous glycine buffer to prepare analytes with various concentration. Sensograms were recorded during flow of the analyte (the ActRIIBecd-associated polypeptides (i.e., domains) as previously described) first through flow cell 1 (control) then through flow cell 2 (biotinylated ActRIIBecd). The sensogram obtained for flow cell 1 was subtracted from the sensogram obtained for flow cell 2. The sensograms obtained at 1.11, 3.33, 10, 30, and 90 nM analyte were evaluated for equilibrium binding, association rate, and dissociation rate by using the programs supplied with the instrument (BIA evaluation 2.1; Software Handbook. 1995; Pharmacia Biosensor AB).

[2] = molecular target: T1, extracellular domain of activin …; assay: Mean KD column of Table 5; method not restated (BIAcore as Example 5); species also listed in Table 4
Description: as §1

[3] = molecular target: T1, extracellular domain of activin …; assay: BIAcore SPR as Example 5 (method not restated); SD ±1.63 nM
Description: as §1, with “Biotinylated ActRIIBecd was collected, freeze-dried and used for streptavidin (SA) chip preparation. Amino-biotinylated ActRIIBecd was then immobilized independently on flow cells 2-4 for 10 minutes at a flow rate of 5 μL/min and a concentration of 20 μM in 10 mM sodium acetate, pH 4.0, at a density of 50-250 resonance units (RU). The stored polypeptides were dissolved in glycine buffer (2.5 g of glycine, 0.5 g of sucrose, 370 mg of L-glutamate, 10 mg of sodium chloride, and 10 mg of Tween 80 in 100 mL water, pH 4.5) to prepare 10 mg/mL solution and then diluted with previous glycine buffer to prepare analytes with various concentration.” left out, “The sensogram obtained for flow cell 1 was subtracted from the sensogram obtained for flow cell 2.” left out

[4] = molecular target: T1, extracellular domain of activin …; assay: BIAcore SPR as Example 5 (method not restated); SD ±1.67 nM
Description: as §1, with “Biotinylated ActRIIBecd was collected, freeze-dried and used for streptavidin (SA) chip preparation. Amino-biotinylated ActRIIBecd was then immobilized independently on flow cells 2-4 for 10 minutes at a flow rate of 5 μL/min and a concentration of 20 μM in 10 mM sodium acetate, pH 4.0, at a density of 50-250 resonance units (RU). The stored polypeptides were dissolved in glycine buffer (2.5 g of glycine, 0.5 g of sucrose, 370 mg of L-glutamate, 10 mg of sodium chloride, and 10 mg of Tween 80 in 100 mL water, pH 4.5) to prepare 10 mg/mL solution and then diluted with previous glycine buffer to prepare analytes with various concentration.” left out, “The sensogram obtained for flow cell 1 was subtracted from the sensogram obtained for flow cell 2.” left out

[5] = molecular target: T1, extracellular domain of activin …; assay: BIAcore SPR as Example 5 (method not restated); SD ±1.55 nM
Description: as §1, with “The sensogram obtained for flow cell 1 was subtracted from the sensogram obtained for flow cell 2.” left out

[6] = molecular target: T1, extracellular domain of activin …; assay: BIAcore SPR as Example 5 (method not restated); SD ±2.15 nM
Description: as §1, with “Biotinylated ActRIIBecd was collected, freeze-dried and used for streptavidin (SA) chip preparation. Amino-biotinylated ActRIIBecd was then immobilized independently on flow cells 2-4 for 10 minutes at a flow rate of 5 μL/min and a concentration of 20 μM in 10 mM sodium acetate, pH 4.0, at a density of 50-250 resonance units (RU). The stored polypeptides were dissolved in glycine buffer (2.5 g of glycine, 0.5 g of sucrose, 370 mg of L-glutamate, 10 mg of sodium chloride, and 10 mg of Tween 80 in 100 mL water, pH 4.5) to prepare 10 mg/mL solution and then diluted with previous glycine buffer to prepare analytes with various concentration.” left out, “The sensogram obtained for flow cell 1 was subtracted from the sensogram obtained for flow cell 2.” left out

Row | Kd [1] [nM] | Kd [2] [nM] | Binder | other results
1 | 4.51 |  | SEQ ID NO: 348, cysteine pairs C88-C92^a (designed binder, disulfides C88-C92 (intra)) GQAKRKGYKRLKSSCKRHPLYNSKIPKACCVPTELSAISMLYLDENEKVVLKNYQDMVVEGCGCRVDFSDVGWNDWIVAPPGYHAFYCHGECPFPLADHLNSTNHAIVQTLVNSV | 
2 |  | 52.2 | SEQ ID NO: 230, cysteine pairs C27-C65^a (designed binder, disulfides C27-C65 (intra)) VDFKDVGWNDHAVAPPGYHAFYCHGECPFPLADHLNSDNHAIVQTKVNSVGQAKRKGYKRLKSSCKRHPLY | Kd [3]: 52.2 nM
3 |  | 18.1 | SEQ ID NO: 194, cysteine pairs C23-C27^a (designed binder, disulfides C23-C27 (intra)) VDFSDVGWNDWIVAPPGYHAFYCHGECPFPLADHLNSTNHAIVQTLVNSVAQAKHKQRKRLKSSCKRHPLY | Kd [4]: 18.1 nM
4 |  | 6.73 | SEQ ID NO: 308, cysteine pairs C59-C59^b, C8-C41^b, C9-C43^b, C88-C92^a (designed binder, disulfides C59-C59 (inter), C8-C41 (inter), C9-C43 (inter), C88-C92 (intra), homodimer by intermolecular disulfide) NSKDPKACCVPTELSAPSPLYLDENEKPVLKNYQDMVVHGCGCRGQAKRKGYKRLKSSCKRHPLYVDFKDVGWNDHAVAPPGYHAFYCHGECPFPLADHLNSDNHAIVQTKVNSV | Kd [5]: 6.73 nM
5 | 7.8 |  | SEQ ID NO: 308, cysteine pairs C88-C92^a (designed binder, disulfides C88-C92 (intra)) NSKDPKACCVPTELSAPSPLYLDENEKPVLKNYQDMVVHGCGCRGQAKRKGYKRLKSSCKRHPLYVDFKDVGWNDHAVAPPGYHAFYCHGECPFPLADHLNSDNHAIVQTKVNSV | 
6 | 10.9 |  | SEQ ID NO: 308, cysteine pairs C8-C43^a, C9-C41^a, C88-C92^a (designed binder, disulfides C8-C43 (intra), C9-C41 (intra), C88-C92 (intra)) NSKDPKACCVPTELSAPSPLYLDENEKPVLKNYQDMVVHGCGCRGQAKRKGYKRLKSSCKRHPLYVDFKDVGWNDHAVAPPGYHAFYCHGECPFPLADHLNSDNHAIVQTKVNSV | 
7 |  | 6.91 | SEQ ID NO: 284, cysteine pairs C59-C59^b, C8-C43^b, C9-C41^b, C88-C92^a (designed binder, disulfides C59-C59 (inter), C8-C43 (inter), C9-C41 (inter), C88-C92 (intra), homodimer by intermolecular disulfide) NSKIPKACCVPTELSAISMLYLDENEKVVLKNYQDMVVEGCGCRAQAKHKQRKRLKSSCKRHPLYVDFSDVGWNDWIVAPPGYHAFYCHGECPFPLADHLNSTNHAIVQTLVNSV | Kd [5]: 6.91 nM
8 | 8.14 |  | SEQ ID NO: 284, cysteine pairs C88-C92^a (designed binder, disulfides C88-C92 (intra)) NSKIPKACCVPTELSAISMLYLDENEKVVLKNYQDMVVEGCGCRAQAKHKQRKRLKSSCKRHPLYVDFSDVGWNDWIVAPPGYHAFYCHGECPFPLADHLNSTNHAIVQTLVNSV | 
9 |  | 17 | SEQ ID NO: 206, cysteine pairs C67-C71^a, C8-C43^b, C9-C41^b (designed binder, disulfides C67-C71 (intra), C8-C43 (inter), C9-C41 (inter), homodimer by intermolecular disulfide) NSKIPKACCVPTELSAISMLYLDENEKVVLKNYQDMVVEGCGCRVDFSDVGWNDWIVAPPGYHAFYCHGECPFPLADHLNSTNHAIVQTLVNSV | Kd [6]: 17 nM
10 | 7.81 |  | SEQ ID NO: 292, cysteine pairs C44-C48^a (designed binder, disulfides C44-C48 (intra)) GQAKRKGYKRLKSSCKRHPLYVDFKDVGWNDHAVAPPGYHAFYCHGECPFPLADHLNSDNHAIVQTKVNSVNSKDPKACCVPTELSAPSPLYLDENEKPVLKNYQDMVVHGCGCR | 
11 |  | 18.1 | SEQ ID NO: 242, cysteine pairs C15-C15^b, C29-C64^a, C30-C62^a (designed binder, disulfide 29-64, 30-62; also: homodimer via intermolecular C15-C15 disulfide, homodimer by intermolecular disulfide) GQAKRKGYKRLKSSCKRHPLYNSKDPKACCVPTELSAPSPLYLDENEKPVLKNYQDMVVHGCGCR | Kd [3]: 18.1 nM
12 | 8.41 |  | SEQ ID NO: 268, cysteine pairs C23-C27^a (designed binder, disulfides C23-C27 (intra)) VDFSDVGWNDWIVAPPGYHAFYCHGECPFPLADHLNSTNHAIVQTLVNSVAQAKHKQRKRLKSSCKRHPLYNSKIPKACCVPTELSAISMLYLDENEKVVLKNYQDMVVEGCGCR | 
13 | 7.41 |  | SEQ ID NO: 276, cysteine pairs C67-C71^a (designed binder, disulfides C67-C71 (intra)) NSKIPKACCVPTELSAISMLYLDENEKVVLKNYQDMVVEGCGCRVDFSDVGWNDWIVAPPGYHAFYCHGECPFPLADHLNSTNHAIVQTLVNSVAQAKHKQRKRLKSSCKRHPLY | 
